# Entries after “also recorded” stand apart in the source; their conditions may differ.
# T1: gp32 His-tagged;Dda-K38A (bacteriophage T4;bacteriophage T4, UniProt P03695;P32270 1-301;1-439, |K38A)
# T1 sequence 1: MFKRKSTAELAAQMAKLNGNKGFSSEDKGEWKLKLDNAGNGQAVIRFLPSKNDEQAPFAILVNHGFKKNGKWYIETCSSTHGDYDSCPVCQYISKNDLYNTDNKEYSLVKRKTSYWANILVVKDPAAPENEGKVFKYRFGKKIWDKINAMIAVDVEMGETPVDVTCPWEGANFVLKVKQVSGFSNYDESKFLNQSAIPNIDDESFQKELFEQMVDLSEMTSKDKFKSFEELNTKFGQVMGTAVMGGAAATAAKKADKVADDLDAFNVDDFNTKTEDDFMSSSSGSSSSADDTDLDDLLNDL
# T1 sequence 2: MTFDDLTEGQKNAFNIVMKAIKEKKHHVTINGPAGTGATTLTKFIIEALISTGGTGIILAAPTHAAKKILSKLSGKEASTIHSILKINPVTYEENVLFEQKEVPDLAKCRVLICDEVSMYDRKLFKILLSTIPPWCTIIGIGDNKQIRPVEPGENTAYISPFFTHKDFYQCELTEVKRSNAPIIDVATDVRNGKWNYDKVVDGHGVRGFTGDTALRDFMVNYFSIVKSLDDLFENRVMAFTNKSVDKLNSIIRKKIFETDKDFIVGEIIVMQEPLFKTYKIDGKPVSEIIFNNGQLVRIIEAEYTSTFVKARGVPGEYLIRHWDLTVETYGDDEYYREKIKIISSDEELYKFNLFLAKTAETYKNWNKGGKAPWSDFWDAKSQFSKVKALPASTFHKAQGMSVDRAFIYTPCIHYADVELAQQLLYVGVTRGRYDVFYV
# T2: gp32 C-terminal peptide 248-270;Dda-K38A (bacteriophage T4;bacteriophage T4, UniProt P03695;P32270 248-270;1-439, |K38A)
# T2 sequence 1: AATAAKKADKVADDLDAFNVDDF
# T2 sequence 2: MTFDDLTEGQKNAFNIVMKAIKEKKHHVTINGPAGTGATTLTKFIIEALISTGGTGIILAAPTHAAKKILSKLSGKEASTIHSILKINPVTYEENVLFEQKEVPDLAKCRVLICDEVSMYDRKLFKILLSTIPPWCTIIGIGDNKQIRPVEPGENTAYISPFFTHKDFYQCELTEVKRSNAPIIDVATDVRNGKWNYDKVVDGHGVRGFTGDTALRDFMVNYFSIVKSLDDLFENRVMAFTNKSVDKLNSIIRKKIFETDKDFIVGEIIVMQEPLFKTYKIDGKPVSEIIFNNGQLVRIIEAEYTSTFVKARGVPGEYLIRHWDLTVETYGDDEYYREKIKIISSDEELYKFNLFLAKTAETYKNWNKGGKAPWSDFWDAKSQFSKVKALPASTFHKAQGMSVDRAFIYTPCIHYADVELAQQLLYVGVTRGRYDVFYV
# T3: gp32 non-His-tagged;Dda-K38A (bacteriophage T4;bacteriophage T4, UniProt P03695;P32270 1-301;1-439, |K38A)
# T3 sequence 1: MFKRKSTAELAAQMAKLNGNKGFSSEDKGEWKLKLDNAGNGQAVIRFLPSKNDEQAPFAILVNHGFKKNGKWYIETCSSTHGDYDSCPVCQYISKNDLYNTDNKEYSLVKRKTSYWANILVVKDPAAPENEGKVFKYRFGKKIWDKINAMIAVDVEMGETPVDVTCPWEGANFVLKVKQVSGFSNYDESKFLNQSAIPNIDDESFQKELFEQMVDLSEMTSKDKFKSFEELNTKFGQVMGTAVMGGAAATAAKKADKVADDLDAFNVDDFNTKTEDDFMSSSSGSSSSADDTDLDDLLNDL
# T3 sequence 2: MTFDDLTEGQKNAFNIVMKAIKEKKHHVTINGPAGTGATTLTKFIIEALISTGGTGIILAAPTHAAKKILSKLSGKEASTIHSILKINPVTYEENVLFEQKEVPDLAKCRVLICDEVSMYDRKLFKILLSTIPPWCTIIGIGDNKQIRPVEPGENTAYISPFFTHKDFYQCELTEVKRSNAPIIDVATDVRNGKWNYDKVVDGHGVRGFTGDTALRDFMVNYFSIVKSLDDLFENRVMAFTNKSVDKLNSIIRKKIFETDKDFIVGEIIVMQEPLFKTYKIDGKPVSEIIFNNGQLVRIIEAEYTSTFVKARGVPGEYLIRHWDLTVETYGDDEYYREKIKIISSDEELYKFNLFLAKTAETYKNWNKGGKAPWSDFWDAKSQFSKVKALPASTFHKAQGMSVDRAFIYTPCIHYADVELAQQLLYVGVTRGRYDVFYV
# How the values were obtained:
# Dda-K38A/dT20 = molecular target: T4, Dda-K38A/dT20 (Enterobacteria phage T4, UniProt P32270, K38A); assay type: binding, bacteriophage T4; conditions: SPR analysis 1, peptides up to 100 μM, 25°C
# T4 construct: made in house
# Method: These experiments were conducted at 25°C using a Biacore 3000 optical biosensor (Cytiva). […] The chip was primed in chelating buffer (10 mM HEPES pH 7.4, 150 mM NaCl, 50 μM EDTA, 0.005% Tween20) and was preconditioned at 10 μl/min with three 60 s injections of wash buffer (10 mM HEPES pH 8.3, 150 mM NaCl, 350 mM EDTA, 0.05% Tween20) and one 60 s injection of chelating buffer before being charged with a 60 s injection of 500 μM NiCl2 in chelating buffer. […] Any remaining active sites were blocked by Tris molecules in the binding analysis buffer (20 mM Tris-acetate pH 8.0, 150 mM NaCl, 10 mM magnesium acetate, 3 mM potassium glutamate, 1 mM TCEP, 0.05% Tween20, 10% glycerol). One flow cell on the chip was charged with Ni^2+ and activated with EDC/NHS without adding protein to be used as a reference cell. gp32 C-terminal peptides were prepared in binding analysis buffer as a 4-fold dilution series at maximum concentration 100 μM for screening and were injected at a flow rate of 75 μl/min. […] The data were processed, double-referenced and analyzed using the software package Scrubber2 (version 2.0c, BioLogic Software). The equilibrium dissociation constants (KD) were determined using steady-state analysis, specifically an equilibrium affinity analysis to fit the data to a 1:1 (Langmuir) interaction model.
# [1] = molecular target: bacteriophage T4 gp32 single-stranded DNA-binding protein, full length, His-tagged (bacteriophage T4) (UniProt P03695); assay: AUC; sedimentation velocity, 20°C, 42 000 rpm; 20 mM Tris pH 7.0, 200 mM NaCl, 0.5 mM EDTA, 5 mM β-mercaptoethanol; gp32 at 11.10 μM
# wild-type Dda/dT20 = molecular target: T5, wild-type Dda/dT20 (Enterobacteria phage T4, UniProt P32270); assay type: binding, bacteriophage T4; conditions: SPR, Biacore T200, 25°C; wild-type Dda/dT20 on NTA chip; average of three experiments
# T5 construct: His-tag; made in house
# Method: These experiments were conducted at 25°C using a Biacore 3000 optical biosensor (Cytiva). […] The chip was primed in chelating buffer (10 mM HEPES pH 7.4, 150 mM NaCl, 50 μM EDTA, 0.005% Tween20) and was preconditioned at 10 μl/min with three 60 s injections of wash buffer (10 mM HEPES pH 8.3, 150 mM NaCl, 350 mM EDTA, 0.05% Tween20) and one 60 s injection of chelating buffer before being charged with a 60 s injection of 500 μM NiCl2 in chelating buffer. […] Any remaining active sites were blocked by Tris molecules in the binding analysis buffer (20 mM Tris-acetate pH 8.0, 150 mM NaCl, 10 mM magnesium acetate, 3 mM potassium glutamate, 1 mM TCEP, 0.05% Tween20, 10% glycerol). […] The data were processed, double-referenced and analyzed using the software package Scrubber2 (version 2.0c, BioLogic Software). The equilibrium dissociation constants (KD) were determined using steady-state analysis, specifically an equilibrium affinity analysis to fit the data to a 1:1 (Langmuir) interaction model.
# These experiments were conducted at 25°C using a Biacore T200 optical biosensor (Cytiva) and NTA chip sensor S series; Cytiva. […] Also, the data were analyzed using the Biacore T200 Evaluation software package (version 3.1).
# gp32 His-tagged;Dda-K38A [2] = molecular target: T1, gp32 His-tagged;Dda-K38A; assay: gel filtration; 50 mM NaCl; purified complex crystallized; EMSA: 25 mM HEPES pH 7.5, 5 mM MgCl2, 0.1 mM EDTA, 2 mM 2-mercaptoethanol, 1 mg/ml BSA, 5% glycerol, 10 or 150 mM NaCl, room temperature (gel 4 C); gel filtration: 20 mM Tris-HCl pH 7.0, 200 mM NaCl (50 mM for crystallization), 0.5 mM EDTA, 5 mM 2-mercaptoethanol; conditions: protein: recombinant;recombinant; tags: N-terminal 6xHis;6xHis (stated for SPR); copies: 1;1; single strand
# gp32 His-tagged;Dda-K38A [3] = molecular target: T1, gp32 His-tagged;Dda-K38A; assay: gel filtration; complex stably formed; EMSA: 25 mM HEPES pH 7.5, 5 mM MgCl2, 0.1 mM EDTA, 2 mM 2-mercaptoethanol, 1 mg/ml BSA, 5% glycerol, 10 or 150 mM NaCl, room temperature (gel 4 C); gel filtration: 20 mM Tris-HCl pH 7.0, 200 mM NaCl (50 mM for crystallization), 0.5 mM EDTA, 5 mM 2-mercaptoethanol; conditions: protein: recombinant;recombinant; tags: N-terminal 6xHis;6xHis (stated for SPR); copies: 1;1; single strand
# [4] = molecular target: T2, gp32 C-terminal peptide 248-270;Dda-K38A; assay: crystal structure; 3.53 A; peptide contacts Dda; EMSA: 25 mM HEPES pH 7.5, 5 mM MgCl2, 0.1 mM EDTA, 2 mM 2-mercaptoethanol, 1 mg/ml BSA, 5% glycerol, 10 or 150 mM NaCl, room temperature (gel 4 C); gel filtration: 20 mM Tris-HCl pH 7.0, 200 mM NaCl (50 mM for crystallization), 0.5 mM EDTA, 5 mM 2-mercaptoethanol; conditions: tags: ;6xHis (stated for SPR); copies: 1;1; single strand
# gp32 His-tagged;Dda-K38A [5] = molecular target: T1, gp32 His-tagged;Dda-K38A; assay: gel filtration, SDS-PAGE and agarose gel; 200 mM NaCl; EMSA: 25 mM HEPES pH 7.5, 5 mM MgCl2, 0.1 mM EDTA, 2 mM 2-mercaptoethanol, 1 mg/ml BSA, 5% glycerol, 10 or 150 mM NaCl, room temperature (gel 4 C); gel filtration: 20 mM Tris-HCl pH 7.0, 200 mM NaCl (50 mM for crystallization), 0.5 mM EDTA, 5 mM 2-mercaptoethanol; conditions: protein: recombinant;recombinant; tags: N-terminal 6xHis;6xHis (stated for SPR); copies: 1;1; single strand
# gp32 His-tagged;Dda-K38A [6] = molecular target: T1, gp32 His-tagged;Dda-K38A; assay: crystal structure; Zn2+; 6 A crystals, Zn SAD; EMSA: 25 mM HEPES pH 7.5, 5 mM MgCl2, 0.1 mM EDTA, 2 mM 2-mercaptoethanol, 1 mg/ml BSA, 5% glycerol, 10 or 150 mM NaCl, room temperature (gel 4 C); gel filtration: 20 mM Tris-HCl pH 7.0, 200 mM NaCl (50 mM for crystallization), 0.5 mM EDTA, 5 mM 2-mercaptoethanol; conditions: protein: recombinant;recombinant; tags: N-terminal 6xHis;6xHis (stated for SPR); copies: 1;1; single strand
# [7] = molecular target: T3, gp32 non-His-tagged;Dda-K38A; assay: crystal structure; Zn2+; 4.98 A; 11 nt visible in one complex, 9 nt (Dda only) in the other; EMSA: 25 mM HEPES pH 7.5, 5 mM MgCl2, 0.1 mM EDTA, 2 mM 2-mercaptoethanol, 1 mg/ml BSA, 5% glycerol, 10 or 150 mM NaCl, room temperature (gel 4 C); gel filtration: 20 mM Tris-HCl pH 7.0, 200 mM NaCl (50 mM for crystallization), 0.5 mM EDTA, 5 mM 2-mercaptoethanol; conditions: protein: recombinant;recombinant; tags: none;6xHis (stated for SPR); copies: 1;1; single strand
# T5 sequence (P32270 whole entry): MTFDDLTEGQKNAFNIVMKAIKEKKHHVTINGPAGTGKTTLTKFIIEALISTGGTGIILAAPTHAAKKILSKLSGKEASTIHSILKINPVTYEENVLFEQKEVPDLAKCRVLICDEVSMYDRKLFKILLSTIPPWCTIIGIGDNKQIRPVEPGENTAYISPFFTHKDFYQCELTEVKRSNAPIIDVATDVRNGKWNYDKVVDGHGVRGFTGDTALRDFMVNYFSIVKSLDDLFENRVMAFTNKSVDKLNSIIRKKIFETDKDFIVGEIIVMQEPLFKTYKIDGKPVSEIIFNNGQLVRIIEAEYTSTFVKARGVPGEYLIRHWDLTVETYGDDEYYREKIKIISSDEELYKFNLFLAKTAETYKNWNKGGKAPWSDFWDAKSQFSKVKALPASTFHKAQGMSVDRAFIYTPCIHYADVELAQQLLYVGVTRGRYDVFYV
molecule,measurement,setting,value
240–253: synthetic peptide of gp32 C-terminus residues 240–253 (GTAVMGGAAATAAK),Binding to Dda-K38A/dT20 (in words),Dda-K38A/dT20,failed to bind; also recorded: showed no binding
"bacteriophage T4 gp32 single-stranded DNA-binding protein, full length, His-tagged (from UniProt P03695 1-301) (natural protein)",stoichiometry N,[1],2
AATAAKKEDKVADDADAFNVDDF [A255E/L262A],Rmax,wild-type Dda/dT20,196 (+/- 12.6) RU
AATAAKKADKEADDLDAANVDDF [V258E/F265A],Rmax,wild-type Dda/dT20,115 (+/- 5.88) RU
TTTTTTTTTTTTTTTTTT (ssDNA) [dT18],binding result,gp32 His-tagged;Dda-K38A [2],binds
TTTTTTTTTTTTTTTT (ssDNA) [dT16],binding result,gp32 His-tagged;Dda-K38A [3],binds
TTTTTTTT (ssDNA) [dT8],binding result,[4],binds
TTTTTTTTTTTTTTTTTTTT (ssDNA) [dT20],binding result,gp32 His-tagged;Dda-K38A [5],binds
TTTTTTTTTTTTTTTTT (ssDNA) [dT17],binding result,gp32 His-tagged;Dda-K38A [6],binds
same,binding result,[7],binds
